According to IntAct's records for PubMed 21893288:

B1: BAR/IMD domain-containing adapter protein 2 (Homo sapiens), Q9UQB8-4 (parent)
chain: MSLSRSEEMHRLTENVYKTIMEQFNPSLRNFIAMGKNYEKALAGVTYAAKGYFDALVKMGELASESQGSKELGDVLFQMAEVHRQIQNQLEEMLKSFHNELLTQLEQKVELDSRYLSAALKKYQTEQRSKGDALDKCQAELKKLRKKSQGSKNPQKYSDKELQYIDAISNKQGELENYVSDGYKTALTEERRRFCFLVEKQCAVAKNSAAYHSKGKELLAQKLPLWQQACADPSKIPERAVQLMQQVASNGATLPSALSASKSNLVISDPIPGAKPLPVPPELAPFVGRMSAQESTPIMNGVTGPDGEDYSPWADRKAAQPKSLSPPQSQSKLSDSYSNTLPVRKSVTPKNSYATTENKTLPRSSSMAAGLERNGRMRVKAIFSHAAGDNSTLLSFKEGDLITLLVPEARDGWHYGESEKTKMRGWFPFSYTRVLDSDGSDRLHMSLQQGKSSSTGNLLDKDDLAIPPPDYGAASRAFPAQTASGFKQRPYSVAVPAFSQGLDDYGARSMSSGSGTLVSTV
B2: Translocated intimin receptor Tir (Escherichia coli O157:H7), Q7DB77 (parent)
chain: MPIGNLGHNPNVNNSIPPAPPLPSQTDGAGGRGQLINSTGPLGSRALFTPVRNSMADSGDNRASDVPGLPVNPMRLAASEITLNDGFEVLHDHGPLDTLNRQIGSSVFRVETQEDGKHIAVGQRNGVETSVVLSDQEYARLQSIDPEGKDKFVFTGGRGGAGHAMVTVASDITEARQRILELLEPKGTGESKGAGESKGVGELRESNSGAENTTETQTSTSTSSLRSDPKLWLALGTVATGLIGLAATGIVQALALTPEPDSPTTTDPDAAASATETATRDQLTKEAFQNPDNQKVNIDELGNAIPSGVLKDDVVANIEEQAKAAGEEAKQQAIENNAQAQKKYDEQQAKRQEELKVSSGAGYGLSGALILGGGIGVAVTAALHRKNQPVEQTTTTTTTTTTTSARTVENKPANNTPAQGNVDTPGSEDTMESRRSSMASTSSTFFDTSSIGTVQNPYADVKTSLHDSQVPTSNSNTSVQNMGNTDSVVYSTIQHPPRDTTDNGARLLGNPSAGIQSTYARLALSGGLRHDMGGLTGGSNSAVNTSNNPPAPGSHRFV

Assays:
[1] = variants of: B1; details: with tir_eco27 tir
[2] = variants of: B1; details: with tir_eco57 tir
[3] = variants of: B1; details: with tir_eco27 tir; remark: listed apart in the source
[4] = variants of: B1; details: with tir_eco57 tir; remark: listed apart in the source
[5] = variants of: B1; details: with tir_eco57 tir; remark: listed apart in the source
[6] = variants of: B2; details: with BAIAP2, Q9UQB8-4

Row | Variant | effect of a mutation on the interaction [1] | effect of a mutation on the interaction [2] | effect of a mutation on the interaction [3] | effect of a mutation on the interaction [4] | effect of a mutation on the interaction [5] | effect of a mutation on the interaction [6]
1 | MSLSRSEEMHRLTENVYKTIMEQFNPSLRNFIAMGKNYEKALAGVTYAAKGYFDALVKMGELASESQGSKELGDVLFQMAEVHRQIQNQLEEMLKSFHNELLTQLEQAVELDSRYLSAALKKYQTEQRSKGDALDKCQAELKKLRKKSQGSKNPQKYSDKELQYIDAISNKQGELENYVSDGYKTALTEERRRFCFLVEKQCAVAKNSAAYHSKGKELLAQKLPLWQQACADPSKIPERAVQLMQQVASNGATLPSALSASKSNLVISDPIPGAKPLPVPPELAPFVGRMSAQESTPIMNGVTGPDGEDYSPWADRKAAQPKSLSPPQSQSKLSDSYSNTLPVRKSVTPKNSYATTENKTLPRSSSMAAGLERNGRMRVKAIFSHAAGDNSTLLSFKEGDLITLLVPEARDGWHYGESEKTKMRGWFPFSYTRVLDSDGSDRLHMSLQQGKSSSTGNLLDKDDLAIPPPDYGAASRAFPAQTASGFKQRPYSVAVPAFSQGLDDYGARSMSSGSGTLVSTV [K108A] | disrupting interaction | disrupting interaction |  |  |  | 
2 | MSLSRSEEMHRLTENVYKTIMEQFNPSLRNFIAMGKNYEKALAGVTYAAKGYFDALVKMGELASESQGSKELGDVLFQMAEVHRQIQNQLEEMLKSFHNELLTQLEQKVELDSRYLSAALKKYQTEQRSKGDALDKCQAELKKLRKKSQGSKNPQKYSDKELQYIDAISNKQGELENYVSDGYKTALTEERRRFCALVEKQCAVAKNSAAYHSKGKELLAQKLPLWQQACADPSKIPERAVQLMQQVASNGATLPSALSASKSNLVISDPIPGAKPLPVPPELAPFVGRMSAQESTPIMNGVTGPDGEDYSPWADRKAAQPKSLSPPQSQSKLSDSYSNTLPVRKSVTPKNSYATTENKTLPRSSSMAAGLERNGRMRVKAIFSHAAGDNSTLLSFKEGDLITLLVPEARDGWHYGESEKTKMRGWFPFSYTRVLDSDGSDRLHMSLQQGKSSSTGNLLDKDDLAIPPPDYGAASRAFPAQTASGFKQRPYSVAVPAFSQGLDDYGARSMSSGSGTLVSTV [F196A] | disrupting interaction | disrupting interaction | decreasing interaction | decreasing interaction |  | 
3 | MSLSRSEEMHRLTENVYKTIMEQFNPSERNFIAMGKNYEKALAGVTYAAKGYFDALVKMGELASESQGSKELGDVLFQMAEVHRQIQNQLEEMLKSFHNELLTQLEQKVELDSRYLSAALKKYQTEQRSKGDALDKCQAELKKLRKKSQGSKNPQKYSDKELQYIDAISNKQGELENYVSDGYKTALTEERRRFCFLVEKQCAVAKNSAAYHSKGKELLAQKLPLWQQACADPSKIPERAVQLMQQVASNGATLPSALSASKSNLVISDPIPGAKPLPVPPELAPFVGRMSAQESTPIMNGVTGPDGEDYSPWADRKAAQPKSLSPPQSQSKLSDSYSNTLPVRKSVTPKNSYATTENKTLPRSSSMAAGLERNGRMRVKAIFSHAAGDNSTLLSFKEGDLITLLVPEARDGWHYGESEKTKMRGWFPFSYTRVLDSDGSDRLHMSLQQGKSSSTGNLLDKDDLAIPPPDYGAASRAFPAQTASGFKQRPYSVAVPAFSQGLDDYGARSMSSGSGTLVSTV [L28E] |  |  | disrupting interaction | disrupting interaction |  | 
4 | MSLSRSEEMHRLTENVYKTIMEQFNPSLRNFIAMGKNYEKALAGVTYAAKGYFDALVKMGELASESQGSKELGDVLFQMAEVHRQIQNQLEEMLKSFHNELLTQLEQAVELDSRYLSAALKKYQTEQRSKGDALDKCQAELKKLRKKSQGSKNPQKYSDKELQYIDAISNKQGELENYVSDGYKTALTEERRRFCALVEKQCAVAKNSAAYHSKGKELLAQKLPLWQQACADPSKIPERAVQLMQQVASNGATLPSALSASKSNLVISDPIPGAKPLPVPPELAPFVGRMSAQESTPIMNGVTGPDGEDYSPWADRKAAQPKSLSPPQSQSKLSDSYSNTLPVRKSVTPKNSYATTENKTLPRSSSMAAGLERNGRMRVKAIFSHAAGDNSTLLSFKEGDLITLLVPEARDGWHYGESEKTKMRGWFPFSYTRVLDSDGSDRLHMSLQQGKSSSTGNLLDKDDLAIPPPDYGAASRAFPAQTASGFKQRPYSVAVPAFSQGLDDYGARSMSSGSGTLVSTV [K108A;F196A] |  |  | disrupting interaction |  | disrupting interaction | 
5 | MSLSRSEEMHRLTENVYKTIMEQFNPSLRNFIAMGKNYEKALAGVTYAAKGYFDALVKMGELASESQGSKELGDVLFQMAEVHRQIQNQLEEMLKSFHNELLTQLEQAVELDSRYLSAALKKYQTEQRSKGDALDKCQAELKKLRKKSQGSKNPQKYSDKELQYIDAISNKQGELENYVSDGYKTALTEERRSFCFLVEKQCAVAKNSAAYHSKGKELLAQKLPLWQQACADPSKIPERAVQLMQQVASNGATLPSALSASKSNLVISDPIPGAKPLPVPPELAPFVGRMSAQESTPIMNGVTGPDGEDYSPWADRKAAQPKSLSPPQSQSKLSDSYSNTLPVRKSVTPKNSYATTENKTLPRSSSMAAGLERNGRMRVKAIFSHAAGDNSTLLSFKEGDLITLLVPEARDGWHYGESEKTKMRGWFPFSYTRVLDSDGSDRLHMSLQQGKSSSTGNLLDKDDLAIPPPDYGAASRAFPAQTASGFKQRPYSVAVPAFSQGLDDYGARSMSSGSGTLVSTV [K108A;R193S] |  |  | disrupting interaction |  | disrupting interaction | 
6 | MSLSRSEEMHRLTENVYKTIMEQFNPSLRNFIAMGKNYEKALAGVTYAAKGYFDALVKMGELASESQGSKELGDVLFQMAEVHRQIQNQLEEMLKSFHNELLTQLEQKVELDSRYLSAALKKYQTEQRSKGDALDKCQAELKKLRKKSQGSKNPQKYSDKELQYIDAISNKQGELENYVSDGYKTALTEERRSFCFLVEKQCAVAKNSAAYHSKGKELLAQKLPLWQQACADPSKIPERAVQLMQQVASNGATLPSALSASKSNLVISDPIPGAKPLPVPPELAPFVGRMSAQESTPIMNGVTGPDGEDYSPWADRKAAQPKSLSPPQSQSKLSDSYSNTLPVRKSVTPKNSYATTENKTLPRSSSMAAGLERNGRMRVKAIFSHAAGDNSTLLSFKEGDLITLLVPEARDGWHYGESEKTKMRGWFPFSYTRVLDSDGSDRLHMSLQQGKSSSTGNLLDKDDLAIPPPDYGAASRAFPAQTASGFKQRPYSVAVPAFSQGLDDYGARSMSSGSGTLVSTV [R193S] |  |  | disrupting interaction | disrupting interaction |  | 
7 | Y458F |  |  |  |  |  | disrupting interaction
